From the supplement of paper PMC10567573
± gives the standard deviation.

Experiment: protein stability index of a GFP-peptide fusion (GPS, HEK-293T) (PSI 1-6); higher = more stable
[1] = treatment: DMSO, c terminus: a fixed tail appended
[2] = treatment: MLN4924 1 uM, 8 h, c terminus: a fixed tail appended
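Note: 24-mer peptide tiles fused after GFP, lentivirally expressed, FACS-sorted into six equal bins by GFP/DsRed ratio, decoded by Illumina sequencing, PSI is the read-weighted mean bin number.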

RTHGDMHSLVRSRHRIPEPEAAVL [TRIB3]
protein stability index [1]: 3.8 ± 0.11 | protein stability index [2]: 3.91 ± 0.086

QYQLLRCNVDLLKIIQLGLTFMNE [CNOT7]
protein stability index [1]: 2.73 ± 1.8 | protein stability index [2]: 2.86 ± 0.42

RGIDIIKWMERYLRDKTVMIIVAI [TRAF3IP2]
protein stability index [1]: 2.25 ± 0.31 | protein stability index [2]: 2.33 ± 0.42

ACSEGDVNAVRKLLIEGRSVNEHT [ANKRD17]
protein stability index [1]: 4.22 ± 0.45 | protein stability index [2]: 4.64 ± 0.11

LWVQGDIFRSKLKNRPSSEGSINK [CDC14A]
protein stability index [1]: 2.62 ± 0.19 | protein stability index [2]: 2.92 ± 0.62

QALLDVKNIAHQNKFGEDMPHPH [HDAC6]
protein stability index (treatment: DMSO, c terminus: native): 4.99 ± 0.18 | protein stability index (treatment: MLN4924 1 uM, 8 h, c terminus: native): 5.08 ± 0.12

ARNGNAEEVRQLLETMARNEVIAD [OSBPL1A]
protein stability index [1]: 4.11 ± 0.061 | protein stability index [2]: 4.07 ± 0.32

SVPMNGTSIQWKNHDQNNHNTDRS [EDNRA]
protein stability index [1]: 4.5 ± 0.29 | protein stability index [2]: 4.92 ± 0.24

KSDSPTGDVLLDETLKHIKATEPT [GOLPH3L]
protein stability index [1]: 5.16 ± 0.27 | protein stability index [2]: 5.26 ± 0.15

QLKACTNFDDILNVCDDYDVTCNE [KCNG1]
protein stability index [1]: 4.42 ± 0.16 | protein stability index [2]: 4.63 ± 0.085

GQINVVKHLLNLGVEIDEINVYGN [ANKRD44]
protein stability index [1]: 2.32 ± 0.46 | protein stability index [2]: 2.29 ± 0.3

RFCLPHLVALAEQHAVQELTKAAT [RHOBTB1]
protein stability index [1]: 2.12 ± 0.18 | protein stability index [2]: 2.08 ± 0.15

NRLASLQQENKVLKIELETYKLKC [CCDC6]
protein stability index [1]: 2.89 ± 0.28 | protein stability index [2]: 3.23 ± 0.21

ESYESMELACPAERSGHVAVSDGR [KLHDC2]
protein stability index [1]: 5.08 ± 0.069 | protein stability index [2]: 5.09 ± 0.17
